The data set “SEC” deals with the molecule itself. The experiment in a line: SEC. A general note: Size exclusion chromatography separates by hydrodynamic size, large species first.
Substrate in data set [1]: COC1=CC(=O)C(C)=CC1=O
The experiment in a line: purified protein. To be noted: 200 μM NADH, 5 μM enzyme, 20 mM Tris pH 7.0 in H2O, 25 °C. In kind it is biochemical, Homo sapiens.

Substrate in data set [2]: COC1=CC(=O)C(C)=C(C/C=C(\C)CCC=C(C)C)C1=O
The experiment in a line: purified protein. The class given is biochemical, Homo sapiens. To be noted: 200 μM NADH, 5 μM enzyme, 25 °C, pH 7.0.

B1: GB1-hCLK-1 (human Clock-1 with an N-terminal immunoglobulin binding domain of protein G) (enzyme, UniProt Q99807 39-217, looked up)
chain: MTLDNISRAAVDRIIRVDHAGEYGANRIYAGQMAVLGRTSVGPVIQKMWDQEKDHLKKFNELMVTFRVRPTVLMPLWNVLGFALGAGTALLGKEGAMACTVAVEESIAHHYNNQIRTLMEEDPEKYEELLQLIKKFRDEELEHHDIGLDHDAELAPAYAVLKSIIQAGCRVAIYLSERL
What is called stoichiometry N is a count of units in the complex or per binding partner. The term Km denotes the concentration of substrate that gives half-maximal velocity. As a reminder, the Vmax is the rate approached at saturating substrate. What is called kcat/Km is the second-order rate constant that governs catalysis at low substrate concentration. Consider B1, for which the “stoichiometry N” value in the data set “SEC” came to 2. Also, in “purified protein [1]”, the Km was 68.1 µM, the Vmax was 12.8 µM/min and the kcat/Km came to 627 M⁻¹ s⁻¹. In addition, in “purified protein [2]”, the Km is 33.8 µM, the Vmax turned out to be 39.2 µM/min and the kcat/Km amounted to 3870 M⁻¹ s⁻¹.

The values are drawn from publication PMC3615049 (Biochemistry, 2013).
